Literature values in paper PMC2924770.
Read-outs that look alike come from different tables or passages of the source.

What was measured:
[1] = target: hemoglobin (Homo sapiens) (UniProt P69905)
[2] = target: hemoglobin (Homo sapiens) (UniProt P69905); remark: listed apart in the source

Row | Substance | Kd [1] [nM] | Kd [2] [nM]
1 | RgpA (from UniProt P28784) | 3.72 | 
2 | Kgp (from UniProt B2RLK2) |  | 3.92
